Assays:
CB megakaryocytes [1] = assay: Megakaryocyte polyploidy by propidium iodide staining after ROCK inhibitor treatment; format: cell-based, human; conditions: treatment of mature megakaryocytes over 5 days, vs untreated
Description: FIGS. 3A-3C. Rock inhibitor(Y27632) treatment increases megakaryocyte polyploidy. (FIG. 3A) Schematic representation of the strategy for the rock inhibitor treatment of mature megakaryocytes over 5 days. (FIG. 3B) Histogram plots showing propidium Iodide (PI) staining in fixed and permeabilized untreated or Y27632 treated megakaryocytes. (FIG. 3C) Percentage of polyploid (=>8N) megakaryocytes in untreated or Y27632 treated groups, number above bar indicates p-value.
The inventors characterized the influence of ROCK inhibitors on CB megakaryocyte ploidy changes, platelets secretions, and their functionality.
This indicates enhancement of functional profile of the CB platelets (FIGS. 4D-4E). Several different ROCK inhibitors can be used in this procedure including Y27632, KD025, GSK269962 and Azaindole 1([9-12].

CB megakaryocytes [2] = assay: Platelet secretion from megakaryocytes cultured in vitro with or without ROCK inhibitor; format: cell-based, human; conditions: 48 hrs culture, vs without inhibitor; dose-dependent
Description: (§1) FIGS. 4A-4E. Rock inhibitor treatment enhance platelets secretion and TRAP induced activation. (FIG. 4A) Schematic representation of the strategy for the in-vitro megakaryocytes culture with or without rock inhibitor(Y27632) for 48 hrs. (FIG. 4B) Number of platelets after 48 hrs, number above bar indicates p-value. […] This indicates enhancement of functional profile of the CB platelets (FIGS. 4D-4E). Several different ROCK inhibitors can be used in this procedure including Y27632, KD025, GSK269962 and Azaindole 1([9-12].

CB platelets = assay: TRAP-induced platelet activation (CD62P expression); format: cell-based, human; conditions: after TRAP stimulation, vs without inhibitor
Description: as §1

[3] = test system: CB derived hematopoietic stem cells (HSCs); assay: Cell surface fucosylation by flow cytometry HECA-452 antibody staining; format: cell-based, human; conditions: FT-VI 0.025 μg/ml plus GDP-fucose, 37° C., 30 min, vs control
Description: (§2) FIGS. 7A-7G. FIG. 7A. […] (FIG. 7C) HECA-452 antibody mean fluorescence intensity (MFI) histogram expression in control and fucosylated megakaryocytes (CD41a+CD42b+CD61+ cells). (FIGS. 7D-7E) Schematic representation of CB megakaryocytes injection into NSG mice, BM homing analysis and the percentage of homed megakaryocytes in control and fucosylated megakaryocytes group. (FIGS. 7F-7G) CB megakaryocyte injection strategy into sublethally irradiated(3Gy) NSG mice and day 7 blood circulating CB derived platelets percentages measurement in the control and fucosylated groups.
(§3) To characterize the fucosylation levels at steady state, the inventors performed flow cytometry HECA-452 antibody staining (which recognizes sLex/cutaneous lymphocyte antigen (CLA), the fucosylated selectin ligand) to measure the levels of cell surface fucosylation in the freshly isolated CB derived hematopoietic stem cells(HSCs, lineage-CD34+CD38-CD90+CD45RA− cells), megakaryocytes lineage committed, megakaryocyte erythroid progenitors (MEPs, lineage-CD34+CD38+CD135−CD45RA−), and differentiated megakaryocytes(CD41a+CD42b+ cells). […] The NSG bone marrow homing experiments determine if the CB MK's surface fucosylation modification influences their homing into the irradiated mice marrow niche. Briefly, 5×10^6 fluorescein succinimidyl ester (CFSE) dye labeled, unmanipulated control or in-vitro fucosyltransferase-VI (FT-VI) induced fucosylated, expanded CB megakaryocytes were injected into sub-lethally (3Gy) irradiated NSG mice and bone marrow homing analysis at 20 h posttransplant was performed by flow cytometry. […] Similarly, another megakaryocytes tail vein transplantation (5×10^6/mice) experiment was performed, and initial percentage circulating platelets levels were measured from the control and fucosylated MK recipient groups. […]

[4] = test system: megakaryocyte erythroid progenitors (MEPs); assay: as above; format: cell-based, human; conditions: FT-VI 0.025 μg/ml plus GDP-fucose, 37° C., 30 min, vs control
Description: as §2, §3

[5] = test system: megakaryocytes (CD41a+CD42b+ cells); assay: as above; format: cell-based, human; conditions: FT-VI 0.025 μg/ml plus GDP-fucose, 37° C., 30 min, vs control
Description: as §2, §3

recipient patients = conditions: ex vivo treatment of CB CD34+ progenitors with FT-VI plus GDP-fucose; cited from earlier work

| Molecule | megakaryocyte polyploidy (polyploid =>8N megakaryocytes) (CB megakaryocytes [1]) | platelets secretion (number of platelets) (CB megakaryocytes [2]) | TRAP induced platelet activation (CD62P expression) (CB platelets) | fucosylation levels (HECA-452 MFI) in HSCs [3] | fucosylation levels (HECA-452 MFI) in MEPs [4] | fucosylation levels (HECA-452 MFI) in megakaryocytes [5] | neutropenia and thrombocytopenia duration in recipient patients (recipient patients) |
| --- | --- | --- | --- | --- | --- | --- | --- |
| C[C@@H](N)[C@H]1CC[C@H](C(=O)Nc2ccncc2)CC1 [Y27632] | increases | enhance | enhance | – | – | – | – |
| α1,3-fucosyltransferase (protein, UniProt P51993 1-359, looked up, fucosyl-transferase enzyme used with GDP-fucose for ex vivo fucosylation of cells) 4-galactosyl-N-acetylglucosami …: MDPLGPAKPQWSWRCCLTTLLFQLLMAVCFFSYLRVSQDDPTVYPNGSRFPDSTGTPAHSIPLILLWTWPFNKPIALPRCSEMVPGTADCNITADRKVYPQADAVIVHHREVMYNPSAQLPRSPRRQGQRWIWFSMESPSHCWQLKAMDGYFNLTMSYRSDSDIFTPYGWLEPWSGQPAHPPLNLSAKTELVAWAVSNWGPNSARVRYYQSLQAHLKVDVYGRSHKPLPQGTMMETLSRYKFYLAFENSLHPDYITEKLWRNALEAWAVPVVLGPSRSNYERFLPPDAFIHVDDFQSPKDLARYLQELDKDHARYLSYFRWRETLRPRSFSWALAFCKACWKLQEESRYQTRGIAAWFT | – | – | – | significantly increased | significantly increased | significantly increased | significantly reduce |

From patent US20230383257A1, “PRODUCTION OF MEGAKARYOCYTES AND PLATELETS IN A CO-CULTURE SYSTEM” (BOARD OF REGENTS, THE UNIVERSITY OF TEXAS SYSTEM, priority 2020, published 2023)
